Measurements from the RNAGym collection of RNA variant scans (doi:10.7554/elife.80360).

B1: Hairpin Ribozyme (parent)
chain: GUCCUCUUUCACGUGCGCGUGAAAGAGAGAAGUGAACCAGAGAAACACACGUUGUGGUAUAUUACCUGGUA

Variants of: B1
Test: self-cleavage, relative activity (ratio to wild type); higher = more cleavage; co-transcriptional

Going from A35C C48A to A35G U62C, the self-cleavage rises from 0.103 to 0.338.

First: A35G U62A
Second: A35G G56C
The self-cleavage of the first is higher: 0.368 for the first, 0.0996 for the second.

Going from G34U A45U to A35G G42U, the self-cleavage falls from 0.351 to 0.304.

Going from A35G G68A to G34C U62C, the self-cleavage rises from 0.309 to 1.1.

Going from A35U A43G to G34U C37A, the self-cleavage rises from 0.0794 to 0.946.

Compared with G34C A45U, A35G A43G is lower in self-cleavage: 0.33 for the first, 0.082 for the second.

First: A35G A43U
Second: A35C C46U
The self-cleavage of the first is higher: 0.223 for the first, 0.221 for the second.

Going from A35G A41U to A35G A41G, the self-cleavage falls from 1.28 to 0.814.

Compared with A35G U58A, A35U A44G is lower in self-cleavage: 0.73 for the first, 0.234 for the second.

First: G34A U70A
Second: A35C A41G
The self-cleavage of the first is higher: 1.14 for the first, 0.907 for the second.

Compared with A35C A41C, A35C A45C is lower in self-cleavage: 1.13 for the first, 0.16 for the second.

Going from A35C G69A to A35C G69C, the self-cleavage falls from 0.378 to 0.126.

Compared with A35G U70A, A35G U70G is lower in self-cleavage: 0.927 for the first, 0.711 for the second.

First: A35G U70C
Second: A35G A44U
The self-cleavage of the first is higher: 0.796 for the first, 0.14 for the second.

First: A35G A44G
Second: A35G A44C
The self-cleavage of the first is lower: 0.177 for the first, 0.211 for the second.

Compared with A35C U67A, G34A U62C is higher in self-cleavage: 0.301 for the first, 0.38 for the second.

Going from G34A U62G to A35G G69A, the self-cleavage falls from 0.347 to 0.204.

First: A35G G69U
Second: A35G G69C
The self-cleavage of the first is higher: 0.285 for the first, 0.204 for the second.

Going from G34A G54U to A35G U67G, the self-cleavage falls from 0.719 to 0.206.

Going from A35G U67C to A35G U67A, the self-cleavage rises from 0.0903 to 0.201.

Compared with G34U C65G, G34U G40A is lower in self-cleavage: 1.35 for the first, 0.751 for the second.

Compared with G34U G40C, A35G A39U is higher in self-cleavage: 0.232 for the first, 0.265 for the second.

Going from A35G A45C to A35G A45G, the self-cleavage falls from 0.106 to 0.0332.

Compared with G34U A39C, G34C U52C is higher in self-cleavage: 0.857 for the first, 1.6 for the second.

First: A35C U53G
Second: G34U A36C
The self-cleavage of the first is lower: 0.403 for the first, 1.02 for the second.

Going from G34U A36G to G34A G68A, the self-cleavage falls from 0.909 to 0.246.

Going from G34A G68C to G34U G68U, the self-cleavage rises from 0.283 to 0.95.

Compared with G34U G68C, A35G A47G is lower in self-cleavage: 0.686 for the first, 0.142 for the second.

Going from A35G A47C to A35G A47U, the self-cleavage falls from 0.312 to 0.178.

Going from A35U A47U to A35U A47G, the self-cleavage falls from 0.185 to 0.137.

First: G34C A43C
Second: G34C A43U
The self-cleavage of the first is lower: 0.144 for the first, 0.233 for the second.

G34U U70C and G34U U70A are the same in self-cleavage: 1.43 for the first, 1.43 for the second.

Going from G34C A36G to G34C A59G, the self-cleavage falls from 1.24 to 0.174.

Compared with A35C A47G, A35C A47U is lower in self-cleavage: 0.195 for the first, 0.179 for the second.

Compared with G34C G69A, G34U U62C is higher in self-cleavage: 0.896 for the first, 1.23 for the second.

Compared with A35U A39C, A35C C65U is higher in self-cleavage: 0.208 for the first, 0.433 for the second.

Compared with A35C C65G, A35C C50A is lower in self-cleavage: 0.387 for the first, 0.364 for the second.

Going from A35G C50U to G34C G40A, the self-cleavage rises from 0.355 to 0.576.

First: G34U U67G
Second: G34U U60A
The self-cleavage of the first is lower: 0.658 for the first, 1.52 for the second.

First: G34U C50A
Second: G34C U63C
The self-cleavage of the first is higher: 1.13 for the first, 0.506 for the second.

Going from G34C C38A to G34C C38U, the self-cleavage rises from 0.563 to 1.28.

Going from G34C C38G to G34A U52C, the self-cleavage rises from 0.683 to 0.857.

Compared with A35G C66A, A35G C66G is lower in self-cleavage: 0.156 for the first, 0.127 for the second.

Compared with G34C G68U, G34A G56C is lower in self-cleavage: 0.658 for the first, 0.13 for the second.

Going from G34A G56U to G34U G42C, the self-cleavage rises from 0.128 to 1.17.

Going from G34A G57U to G34A G57C, the self-cleavage falls from 0.461 to 0.247.

Compared with G34A U60C, G34A U60A is lower in self-cleavage: 1.5 for the first, 1.13 for the second.

First: A35G C37U
Second: A35C C37U
The self-cleavage of the first is lower: 0.302 for the first, 0.486 for the second.

Compared with A35C C37A, G34C U70G is higher in self-cleavage: 0.269 for the first, 1.23 for the second.

Going from G34C U70A to G34A G51U, the self-cleavage rises from 1.12 to 1.28.

Going from A35C G40A to A35G C48G, the self-cleavage rises from 0.208 to 0.213.

First: A35C A49G
Second: A35C A49C
The self-cleavage of the first is higher: 0.341 for the first, 0.147 for the second.

Going from G34U U55G to G34U U55A, the self-cleavage rises from 1.27 to 1.48.

Compared with A35G G40A, A35G G40U is lower in self-cleavage: 0.24 for the first, 0.161 for the second.

First: A35G U55A
Second: A35U A45U
The self-cleavage of the first is higher: 0.292 for the first, 0.151 for the second.

Going from A35C A39U to G34C G51U, the self-cleavage rises from 0.445 to 1.4.

Going from G34U U63A to A35C C38G, the self-cleavage falls from 0.243 to 0.112.

First: A35C C38U
Second: G34C A41U
The self-cleavage of the first is lower: 0.312 for the first, 1.42 for the second.

Compared with A35G U52C, G34U is higher in self-cleavage: 1.29 for the first, 1.42 for the second.

Compared with G34C, G34U U52G is lower in self-cleavage: 1.4 for the first, 0.896 for the second.

First: G34U U52C
Second: G34C A64C
The self-cleavage of the first is higher: 0.926 for the first, 0.578 for the second.

Compared with G34C U58C, A35U A41U is higher in self-cleavage: 1.4 for the first, 1.41 for the second.

First: A35C G56U
Second: A35C G56A
The self-cleavage of the first is lower: 0.153 for the first, 0.161 for the second.

Going from G34A U58C to A35C A61U, the self-cleavage falls from 1.11 to 0.125.

Going from A35G A71U to A35G A36G, the self-cleavage falls from 0.837 to 0.749.

Compared with A35C A43G, A35C A43U is higher in self-cleavage: 0.155 for the first, 0.194 for the second.

First: G34C G54C
Second: G34U G56U
The self-cleavage of the first is higher: 0.735 for the first, 0.225 for the second.

Going from G34C A47G to G34C A47U, the self-cleavage rises from 0.448 to 0.465.

Going from G34C C37U to G34C A44C, the self-cleavage falls from 1.34 to 0.116.

First: A35C U52A
Second: A35C A36C
The self-cleavage of the first is higher: 1.14 for the first, 0.517 for the second.

First: G34A U55A
Second: G34A U55G
The self-cleavage of the first is lower: 0.518 for the first, 0.541 for the second.

Compared with G34U U58C, G34U U58G is lower in self-cleavage: 1.53 for the first, 1.25 for the second.

Compared with A35C G42C, G34C A71U is higher in self-cleavage: 0.505 for the first, 1.27 for the second.

First: A35C G54C
Second: A35G A64G
The self-cleavage of the first is higher: 0.513 for the first, 0.277 for the second.

Going from A35C A71U to A35C G51A, the self-cleavage rises from 0.668 to 1.26.

First: A35C U63C
Second: G34U A59G
The self-cleavage of the first is lower: 0.0565 for the first, 0.23 for the second.

First: G34U A59U
Second: A35G A59U
The self-cleavage of the first is lower: 0.192 for the first, 0.229 for the second.

Compared with A35G A59G, G34C A39G is higher in self-cleavage: 0.266 for the first, 1.03 for the second.

Going from G34C A39U to G34U A47G, the self-cleavage falls from 1.02 to 0.444.

Going from G34U A47U to G34C A61U, the self-cleavage rises from 0.876 to 1.24.

Going from G34A U63G to G34A U63A, the self-cleavage rises from 0.157 to 0.259.

Going from G34U C46A to G34C U67A, the self-cleavage rises from 0.239 to 0.451.

Compared with A35G U60C, A35G G54U is lower in self-cleavage: 0.917 for the first, 0.513 for the second.

Work on G34U G51A yielded a self-cleavage of 1.57.
